Target: native C. thermocellum cellulosome (purified from culture media of C. thermocellum ATCC 27405) (Clostridium thermocellum) (UniProt Q06851)
Experiment: cell-based or functional assay

UniProt Q06851, sequence (Q06851 whole entry): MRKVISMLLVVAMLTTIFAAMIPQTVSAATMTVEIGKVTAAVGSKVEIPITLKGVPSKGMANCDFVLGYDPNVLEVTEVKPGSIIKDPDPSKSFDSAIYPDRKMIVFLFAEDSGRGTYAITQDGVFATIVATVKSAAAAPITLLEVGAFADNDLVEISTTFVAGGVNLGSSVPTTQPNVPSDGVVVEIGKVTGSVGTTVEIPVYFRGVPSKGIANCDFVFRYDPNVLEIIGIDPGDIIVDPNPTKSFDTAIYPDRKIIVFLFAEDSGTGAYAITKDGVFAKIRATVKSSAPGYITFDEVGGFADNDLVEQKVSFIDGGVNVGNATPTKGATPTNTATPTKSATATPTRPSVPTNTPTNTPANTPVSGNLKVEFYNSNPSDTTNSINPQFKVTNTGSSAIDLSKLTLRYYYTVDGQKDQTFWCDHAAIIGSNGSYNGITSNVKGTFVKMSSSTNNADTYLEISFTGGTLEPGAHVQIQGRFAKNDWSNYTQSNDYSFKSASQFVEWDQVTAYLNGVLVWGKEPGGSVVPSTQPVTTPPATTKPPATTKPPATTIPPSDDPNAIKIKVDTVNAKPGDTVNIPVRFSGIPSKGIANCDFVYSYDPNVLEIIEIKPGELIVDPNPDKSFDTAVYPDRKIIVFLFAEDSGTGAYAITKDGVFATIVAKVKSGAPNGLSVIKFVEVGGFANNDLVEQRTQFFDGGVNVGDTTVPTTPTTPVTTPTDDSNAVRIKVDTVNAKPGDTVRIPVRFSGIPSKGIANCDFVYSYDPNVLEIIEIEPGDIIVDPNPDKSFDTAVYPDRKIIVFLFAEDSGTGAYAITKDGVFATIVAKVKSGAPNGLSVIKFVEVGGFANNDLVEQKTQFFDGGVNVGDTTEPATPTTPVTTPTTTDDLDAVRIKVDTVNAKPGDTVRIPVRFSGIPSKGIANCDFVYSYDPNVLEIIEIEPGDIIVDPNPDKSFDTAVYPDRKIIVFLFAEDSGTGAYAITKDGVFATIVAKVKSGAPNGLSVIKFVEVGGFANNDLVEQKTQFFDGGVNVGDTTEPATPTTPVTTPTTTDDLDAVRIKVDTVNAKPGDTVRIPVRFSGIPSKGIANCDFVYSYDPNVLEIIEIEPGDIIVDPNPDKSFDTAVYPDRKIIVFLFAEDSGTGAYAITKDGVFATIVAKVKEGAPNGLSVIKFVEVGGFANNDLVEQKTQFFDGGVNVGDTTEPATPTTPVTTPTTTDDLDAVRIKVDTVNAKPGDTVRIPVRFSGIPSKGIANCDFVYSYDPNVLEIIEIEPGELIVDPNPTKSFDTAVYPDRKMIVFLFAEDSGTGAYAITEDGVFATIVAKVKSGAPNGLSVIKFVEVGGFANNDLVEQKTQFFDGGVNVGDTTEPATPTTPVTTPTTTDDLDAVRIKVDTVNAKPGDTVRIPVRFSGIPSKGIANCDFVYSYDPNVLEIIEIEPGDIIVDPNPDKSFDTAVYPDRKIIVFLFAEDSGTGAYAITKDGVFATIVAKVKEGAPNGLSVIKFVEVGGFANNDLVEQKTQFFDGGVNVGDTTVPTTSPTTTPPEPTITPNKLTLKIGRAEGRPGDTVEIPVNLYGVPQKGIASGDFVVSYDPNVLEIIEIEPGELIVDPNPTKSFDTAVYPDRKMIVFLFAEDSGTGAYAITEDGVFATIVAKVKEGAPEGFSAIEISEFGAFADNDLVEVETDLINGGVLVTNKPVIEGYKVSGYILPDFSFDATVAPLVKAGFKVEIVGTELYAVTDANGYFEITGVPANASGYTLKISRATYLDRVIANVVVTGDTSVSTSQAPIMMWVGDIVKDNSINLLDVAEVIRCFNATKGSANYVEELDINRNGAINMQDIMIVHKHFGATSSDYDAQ

Q: How did the hydrolysis of microcrystalline cellulose (soluble reducing sugars), fold over native cellulosome turn out when “BglA-CohII (C. thermocellum beta-glucosidase A fused to the type-II cohesin module of Orf2p) (enzyme)” was run?
A: 2.68 fold

Q: What about the hydrolysis of pre-treated switchgrass (soluble reducing sugars), fold over native cellulosome of the same substance?
A: 1.86 fold
